{"source": "paper PMC4182837", "about": "“BosR Functions as a Repressor of the ospAB Operon in Borrelia burgdorferi”"}
{"target": "BosR (Borrelia burgdorferi B31, UniProt O51592 1-176)", "assay": "EMSA; 400 nM BosR, 1 nM probe, 50 ug/ml salmon sperm DNA", "conditions": "protein: recombinant; tags: C-terminal His6 (pET-23a); chain copies: 2; label: 5' digoxigenin on one strand"}
{"binder": "cisII probe (dsDNA) DNA 1: TGTTATTTGTTAATCTTATAATATAATTATACTTGTATTAAGTTATATTAATATAAAAGGAGAATATATT DNA 2: AATATATTCTCCTTTTATATTAATATAACTTAATACAAGTATAATTATATTATAAGATTAACAAATAACA", "binding result": "binds"}
{"binder": "cisI probe (dsDNA) DNA 1: TAATTAGAACCAAACTTAATTAAAACCAAACTTAATTGAAGTTATTATCATTTTATTTTTTTTCAATTTT DNA 2: AAAATTGAAAAAAAATAAAATGATAATAACTTCAATTAAGTTTGGTTTTAATTAAGTTTGGTTCTAATTA", "binding result": "binds"}
{"binder": "IRs probe (ospC operator) (dsDNA) DNA 1: CAATATTTTTCAAATTCTTCAATATTTATTCAAGATATTGAAGAATTTGAAAAAATTATTTTTTCAAATA DNA 2: TATTTGAAAAAATAATTTTTTCAAATTCTTCAATATCTTGAATAAATATTGAAGAATTTGAAAAATATTG", "binding result": "no binding"}
